# From a protein production outcome set (Wang et al. 2014)
# Test: label from the status in PepcDB records
row,Sequence,protein production
1,MKKLLRNLFGSGREEEKRSASDAMSGREQIVTNSEKSNLSTDPDHVNRQADTLKFDAIRAMNMGELVFATEALRKAMELRPEFETRYYLTEALLRRHLTEEALAQMNLLLEEVPMHTATLLNRAKLRLEQNDPSRALEDCGTGIESTSELEEQALFLYYGASAMKDMKNLKDALCLLKQAIEKNDAFIPARLLRARILIDLERYEEATQDLDWVAASDPEEEQVPMLRARLFMLEGKQQNAIQAYEELLSLDPFNEEGHCGIATLMIKEGRSAEAETFLREAIEEMPVQRNLILMLVEILENKGQTQEAAEWRAKLPEAEVESEAVNFNDLYKGNLY,failed
2,MKKMAAAESMEAEICINREIPPGLFPAVKGTDDLMAEGDIMSLLESIKKTEGGSGEVSVEDKMDEIFAKLEKSQVLLIQGDTGCGKTTKIPKYLLRKYGKIVCSQPRRIAAVSIAKKVAVDMKGKIGEDVGYSIRFDDMSSGRTRLKYVTDGVLLREIKNDKHLKKYDVVIIDEAHERSVNIDILLGYLKSILSERKDLRVVIMSATLNSEKFASFFRCQTVEIRHRMFPLEIFFLKKSDVADYVDEAMKTVVQIHRGEESGDILVFLTGRDEINSGREILMEVLGNDAEVCCIYSTLSPEEQEAVFRKTKKRKIVLATNIAETSITIEGVRYVVDSGRAKQMRYSASFGMDILEVVWISKAQAKQRAGRAGRTQAGKVFRMYSKEEYQKMDDNTTPEIFCCNLGKIVLELKSIGVDDIVNFNLIDKPDASNVKKALEMLYYLRAIGGDGKITSIGVKASTIPLDPELAVSLIVSSELGCLEDVSIIAAMLSVGNVWLDVPRYSQSYKAFLGARAAHFDKRGDHFLLLKIYRRWEKTGFKISHLKRWFLNVKTMLQTVKIKKQLCSMFRSPCKSDESGILPSLCAGYFMNVAKLVGESYVSIFNDTPCFIHYTSCMSRQNAKYILYHTLCRTGKEYARYCVGVTLEDLLKGANHMFAKVRKTEK,failed
3,MKKMLKVMLATLVLGWAVMAHAEDPHVEYTDAIGKGDLKVVKQYFNNPYKVDELFFAWSGLEIAANKGQLEMVKFFVENGADVNYKHPITKMTALHLAAYQGNKDVVKYLIDHGADVNAKLRGNVSILRALRDEGRTDMVDFLIAAGAKDDGCQEKKCY,failed
4,MKKMLPESKVESIRKEGFLNRAVEAYRFFYPTVSNVSNFKALHDLGITENHDFIIQLTTPDLNVLTQNSDTPYCLGTGNTENGPVVIELPLGAIVGVADDINFKFITNMGLTGDEEGKGAKYLYLPPNYDGDIPEGYIVRKPSSFRFLICLRAMVHQASDYEKAFELLKTVKFYPLKEAKNNPTSTFHDFSHRKAISTPYYVEGKFDYWEVIKWALDNDETDPEYYQMYGLLKAIGLAPNKEFNPDSDTKALLIEAAEKADKMMFVNSFNTDDPAAIVWPGKNWEWAVYGENNDFYEKTYLNLPVRERWFYQATLETHMMFMHKVGFGSVYMLGVKDKEGNYLDGGKSYTLKVPTPVPTSIFWSVTVYEMDTRSEIVTEQFMPALNSIKDTFEADADGNTTLYFGPNPPEDESLPWIQTVPDANWFTYFRIYGPTEPAFDNSWQLYDFEEVK,failed
5,MKKNHVVIGVIIVAALALLFTLSIQIARLILGDGPMVSSGEGVGYVEVKGPILESEEIVKQLSEMRKKTNVKAVVLRIESPGGVIGPSQEIYEAVKKLAKTKKVVVSMGSVAASGGYHIAIPAAVIYANPGTITGSIGVLMKLANVEGLMDKVGMKAFTLKSGKFKDAGSPVRALTDEDRALLQGVIDNLHTQFVKAVAEARKLPVEEVRRLADGRVYTGEQAVSLKLVDRLGTLEDAVEEAGRLAGIKGEPTLLMPPKKRKHLRDYLLEEASGFFREIVRREGGFSVNYELDPAVGNGGRLEHHHHHH,not failed
6,MKKNLLYLSCALMCMLGFLSSCKDDEKEIPPVVEDVVAQYTGDKVKVTLGGEAVSGDAQIDLVQQDDKSLTIKLLNIIPDVKEFSIPNAEFEATTRSAYISKLSGKVSNAVVGYDVTFEGVVDEGVLTASITATEIKGDSINAKKAGLTGKTFKGKMTINVSNIPTPIEMEQRVYTSVVSKDTSAIKLKINDFAFQGLKLGDISLDTVAVRHRGEQDGKPIYGFKTKSQEMTLEAVGKVLIDANGTIIGEKMELSLNVNAVTAGLTVGVDFSGNIVEESTDTKATITVTGDAVAEGVTVSGNTYTFKVWESTPDDQLVFIPKIEIPATAVLDSIIIYDNRNKKVSAVEPNTAIDFSQLKENYYVGYHVTPEDIRYPSKKMLKMVRIAELNPVYDMATWVADGDFEKPNGLTTSNLAAAFFPMFGIDVPTPVVKASDNAAEITTSRTVSATLPSTLVPGVTAGTMFLGEFKVDITNTLKSTHFGVPYRVKPVNFKITYKYTPGTTFYKTVVKNNANDTEVVPNEKDECSINAYLYEVDSYAETLDGTNINTSNKVIMKAVLEDGSAKADYVTLTIPFKETGNGSFDPTKKKYKLAIVCSSSKKGDQFMGADGSKLWVKYLEVTR,failed
7,MKKPVYMKGGLHWLRNDGAIVAFNPETEKARLISIRFPKELCSKTLFTAADNNLILISATEEVFYVYAVENILTDPKWVVLKQIRNGVLDEKMLYSWYPEAYDGKCLMLREILKKDHYKQVLHGYDLRANKWEVIGSIPGWYTSALDFYQFTPSLSSVIGPDAKEEEEILACDHKKISSINSIIRMLDGISS,failed
8,MKKRFCFVIITLLLIFILGSCNKVTSIRRLQELEEGVSNPNTEAELKDAIRKYEKRVDDIMIAEERIGIWYKILGSRYMDQKMYKKALKAFQSALEYYPENQNLFYQAGLAASLTAKNSLDFELTGTDIEKKRYFDLAVSAYKRALEIDPKHAKAVYALSVLYIFELNRPTEAIPILEKITEWEKKPIDHLFLLGAAYYMTGENEKAIAVYERIIEISSSAEKKAKAESNIREIRSSGGR,failed
9,MKKRKLLAVTLLSTILLNSAVPLVVADTSLRNNTSSTDQPTTADTATDAESETAKKDKKSKETASQHDTQKDHKPSHTHPTPPSNDTKQTDQASSEATDKPNKDKNDTKQPDSSDQSTSSPKDQSSQKESQNKDGRPTPSPDQQKDPTPDKTPEKSADKIPEKATEKTPEPNRDAPKPIQPPLAAAAPVFIPWRESDKDLSKLKPSSRSSAAYVRHWTGDSAYTHNLLSRRYGITAEQLDGFLNSLGIHYDKERLNGKRLLEWEKLTGLDVRAIVAIAMAESSLGTQGVAKEKGANMFGYGAFDFNPNNAKKYSDEVAIRHMVEDTIIANKNQTFERQDLKAKKWSLGQLDTLIDGGVYFTDTSGSGQRRADIMTKLDQWIDDHGSTPEIPEHLKITSGTQFSEVPVGYKRSQPQNVLTYKSETYSFGQCTWYAYNRVKELGYQVDRYMGNGGDWQRKPGFVTTHKPKVGYVVSFAPGQAGADATYGHVAVVEQIKEDGSILISESNVMGLGTISYRTFTAEQASLLTYVVGDKLPRP,failed
10,MKKRLLKSFSFSYNSQDENRRLLERLMQYKSKDADKLNEENESIIRKRSAKLKRDLEDAVREPSSSSNAASSPGAASLQRNSSPAQFVGGLIGDEDFDEAAINGAMEAIGLDDNEYISARFTAGEIAENSRASIDTLKATGYLGQANPTKILMKFEAHENESHAVRWSPVERMVATGGADRKVKLWDIGKNSTEPRAVLSGSSAGINSVDFDSTGAYILGTSNDYGARVWTVMDNRLRHTLTGHSGKVMAAKYVQEPIKVVTGSHDRTLKIWDLRSIACIETKFAGSSCNDLVTTDSLGSTIISGHYDKKIRFWDIRTEKQADDVLMPAKITSLDLSKDCNYLICSVRDDTIKLLDLRKNQVISTFTNEHFKISCDFARASFNSSGLKIACGSADGAIYIWNVNGFLEATLKGHSTAVNAVSWSPNNNMLASVGKNKRCTIYSES,failed
11,MKKRLSLDRRFLPYIKKAGGVLVKKQMGAYVSLAAAMAIVGSSVVVGKLMVERIPVFLSSGLRFLIASVVLLMLLFCIEKGFPALTKKDVFVLLVQSFTGVFLFSICLLYGVQYTTGTESGILTSTTPMLIGILSFFLLREKIEKKTLIGILLAVCGVMAINLFGAGSQDGTPHALFGNMLIIAAVIGEALFTLMAKLLSPHISALAISTFVSLFGFLFFLPFALFEASSFDYSVPTVLDWSYVLYYALFVTVLAFYLWYSGVTKVPAGVSGIFTSVLPVSAVILSGVILKEPFEFVHFIGIACVIGGIFVTVIKKKQPDAYPAAEEKTL,failed
12,MKKSLCLSFFLTFSNPLQALVIELLEEIKTSPHKGTFKAKVLDSKKPRQVLGVYNISPHKKLTLTITHISTAIVYQPLDEKLSLETTLNPNRPTIPRNTQIVFSSKELKESHPHQMPSLNAPMQKPQNKPHSSQQPSQNFSYPEPKLGSKNSKNSLLQPLAIPSKISPTNETQTPTNDTKPPLKHSSEDQESNLFITPPTEKTLPNNTSNADISENNESNENKDNVEKQAIRDANIKEFACGKWVYDDENLQAYRPSILKRVDEDKQTATDITPCDYSTAENKSGKIITPYTKISVHKTEPLEEPQTFEAKNNFAILQARSSTEKCKRARARKDGTTRQCYLIEEPLKQAWESEYEITTQLVKAIYERPKQDDQVEPTFYETSELAYSSTRKSEITHNELNLNEKFMEFVEVYEGHYLNDIIKESSEYKEWVKNHVRFKEGVCMALEIEEQPRAKSTPLSIENSRVVCVKKGNYLFNEV,failed
13,MKKSLDEHAERFSDHADAYDEDQDSAAYRACVNFVVDHAAPESDDVVLDLGTGTGAIAFALASDAAEIIGRDISDGMLEKAREKADGRGVENVSFGDGRFRAPNVDRPVDIVTSNFAMHHLGDDEKREAIDTIADLGPRRIVLGDVMLFGDDDPDAPFYSPEVDDPATVGVLADAFTDAGYALTAVEMVTEQAGVLVAERVKSDLEHHHHHH,not failed
14,MKKSLVVCALSAAVLLSGCETVNTTSGGVVGVDRKQSMFSMVSSAEVNQSYAQSYQQTLGEASSQGVLDKTSANAKRLQVIANRLIAQAPTFRPDCAQWKWEVNLIKSDELNANCGPGGKIIFYSGLIEKLKLTDDEIAAVMGHEIAHALREHGREAMSKQYAVGAGKQIATLFGVPQETVALGDNGVNLLMTLPNSRENENEADLIGLELAARAGYNPNAAISLWNKMGQAAGGSAPPEFMSTHPASTSRIASLQAAIPKVMPLYQAAKKSLEHHHHHH,failed
15,MKKTLILGATPETNRYAYLAAERLKSHGHEFIPVGRKKGEVLGKTIINERPVIEGVDTVTLYINPQNQLSEYNYILSLKPKRVIFNPGTENEELEEILSENGIEPVIGCTLVMLSAGT,failed
16,MKKTTLALSALALSLGLALSPLSATAAETSSATTAQQMPSLAPMLEKVMPSVVSINVEGSTTVNTPRMPRNFQQFFGDDSPFCQEGSPFQSSPFCQGGQGGNGGGQQQKFMALGSGVIIDADKGYVVTNNHVVDNATVIKVQLSDGRKFDAKMVGKDPRSDIALIQIQNPKNLTAIKMADSDALRVGDYTVAIGNPFGLGETVTSGIVSALGRSGLNAENYENFIQTDAAINRGNSGGALVNLNGELIGINTAILAPDGGNIGIGFAIPSNMVKNLTSQMVEYGQVKRGELGIMGTELNSELAKAMKVDAQRGAFVSQVLPNSSAAKAGIKAGDVITSLNGKPISSFAALRAQVGTMPVGSKLTLGLLRDGKQVNVNLELQQSSQNQVDSSSIFNGIEGAEMSNKGKDQGVVVNNVKTGTPAAQIGLKKGDVIIGANQQAVKNIAELRKVLDSKPSVLALNIQRGDSTIYLLMQ,failed
17,MKKVIAGLAAASVVGVAVPGMDSAQAQVSNEALKEINGQTQTQTTVTETKTVETKSDLKYTVTADVLNVRSGAGTGHSVISKVKQGQVLQVIGQENGWFKVTVNGQTGYVSGDFVTTGGKTGTTVQQGTGTYTVNVSSLNVRTGPSTSHTVLGSVNKGKTVQVVSEVQDWFKINFNGGTGYVSKDFVTKGGSAVSNQTQQPTTNNNTTTVQTGGSYVVNTGALKVRTGPATYNAVIGGVTNGTVLNVTGAENGWYKINHNGRTGYVSADFVKFVKGGVNNVTNNVQQPVKDVQKPTTGGNTSSIAGFARSLNGSPYRTAGTTPAGFDCSGFIHYVLNQTGHKGARQTVAGYWSSKTKTSNPQPGDLVYFQNTYKSGPSHMGVYLGNGQFISAETDATGVRISSVSNSYWSKHLLGYTKAYLEHHHHHH,failed
